Measurements: PMC8960973, “Pretransition state and apo structures of the filament-forming enzyme SgrAI elucidate mechanisms of activation and substrate specificity” (The Journal of Biological Chemistry, 2022)

T1: SgrAI restriction endonuclease (UniProt Q9F6L0 1-339)
T1 sequence: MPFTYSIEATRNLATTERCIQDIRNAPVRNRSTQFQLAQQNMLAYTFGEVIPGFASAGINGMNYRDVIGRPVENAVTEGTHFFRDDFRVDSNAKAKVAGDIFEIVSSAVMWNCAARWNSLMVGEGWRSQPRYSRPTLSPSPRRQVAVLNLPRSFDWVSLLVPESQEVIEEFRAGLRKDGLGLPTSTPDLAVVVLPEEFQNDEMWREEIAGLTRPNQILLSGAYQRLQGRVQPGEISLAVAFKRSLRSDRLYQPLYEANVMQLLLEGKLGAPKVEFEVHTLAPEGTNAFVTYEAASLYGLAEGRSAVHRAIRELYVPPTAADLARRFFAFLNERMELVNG


How the values were obtained:
[1] = target: T1, SgrAI restriction endonuclease; experiment: cryo-EM structure (2.7 A); Ca2+ (sites A and B), filamentous, intact scissile phosphate; EM sample buffer not given in the material; Ca2+ in place of Mg2+; SgrAI stored after SEC in 25 mM Tris-HCl pH 8, 150 mM NaCl, 1 mM DTT; conditions: protein: recombinant; chain copies: 2; blunt
[2] = target: the molecule itself; experiment: crystal structure; DNA-free (apo) SgrAI with Ca2+; hanging drop, 5% PEG 4000, 0.1 M imidazole pH 6.5, 0.1 M NaCl, 5 mM Ca(OAc)2, 17 °C; two chains per asymmetric unit forming the dimer
[3] = target: the molecule itself; experiment: cryo-EM structure; run-on oligomeric filaments of SgrAI dimers bound to 40 bp primary site DNA (CACCGGTG, intact scissile phosphate); 4.9 uM SgrAI, 41 uM dsDNA, 10 mM Ca2+, room temperature 1 h; helical symmetry rise 21.2 A, twist -85.8 deg

Binder | binding result [1] | stoichiometry N [2] | stoichiometry N [3]
40-1 (40 bp primary site DNA) (dsDNA) DNA 1: GATGCGTGGGTCTTCACACCGGTGGATGCGTGGGTCTTCA DNA 2: TGAAGACCCACGCATCCACCGGTGTGAAGACCCACGCATC | binds |  | 
SgrAI type II restriction endonuclease, wildtype (enzyme, homodimer of 74 kDa; in the crystal it is DNA-free with Ca2+; also called SgrAI dimer; source: E. coli BL21 (DE3), purified (Talon resin, heparin FF, Superdex-200 SEC)) MPFTYSIEATRNLATTERCIQDIRNAPVRNRSTQFQLAQQNMLAYTFGEVIPGFASAGINGMNYRDVIGRPVENAVTEGTHFFRDDFRVDSNAKAKVAGDIFEIVSSAVMWNCAARWNSLMVGEGWRSQPRYSRPTLSPSPRRQVAVLNLPRSFDWVSLLVPESQEVIEEFRAGLRKDGLGLPTSTPDLAVVVLPEEFQNDEMWREEIAGLTRPNQILLSGAYQRLQGRVQPGEISLAVAFKRSLRSDRLYQPLYEANVMQLLLEGKLGAPKVEFEVHTLAPEGTNAFVTYEAASLYGLAEGRSAVHRAIRELYVPPTAADLARRFFAFLNERMELVNG |  | 2 chains per dimer | < 10 DBDs (DNA-bound SgrAI dimers) per filament
